From US20230391845A1, “GLP-1, GIP AND GLUCAGON RECEPTOR TRIPLE AGONISTS” (priority 2020, published 2023)
*1 amine or outer side, *2 acyl side, *3 side chain or, on linkers, in order; H or OH if unused. Where a SMILES comes first, the peptide text is derived from it. Where no end group is shown, it is not given here. Side-chain parts run from the residue outwards. [ ]: non-standard residue; d: D form. The star is where a group is joined. C20 diacid = O=C(O)CCCCCCCCCCCCCCCCCCC(=O)*; γGlu = O=C(O)[C@H](CCC(=O)[*:2])N[*:1]; εLys = N[C@@H](CCCCN[*:1])C(=O)[*:2]; AEEA = NCCOCCOCC(=O)O; Aib = CC(C)(N)C(=O)O

T1: human GIP receptor (Homo sapiens, UniProt P48546)
T1 construct: expressed in transfected cells; host or cells: BHK cells (parent line BHKTS13) containing CRE luciferase
T1 sequence (P48546 22-466): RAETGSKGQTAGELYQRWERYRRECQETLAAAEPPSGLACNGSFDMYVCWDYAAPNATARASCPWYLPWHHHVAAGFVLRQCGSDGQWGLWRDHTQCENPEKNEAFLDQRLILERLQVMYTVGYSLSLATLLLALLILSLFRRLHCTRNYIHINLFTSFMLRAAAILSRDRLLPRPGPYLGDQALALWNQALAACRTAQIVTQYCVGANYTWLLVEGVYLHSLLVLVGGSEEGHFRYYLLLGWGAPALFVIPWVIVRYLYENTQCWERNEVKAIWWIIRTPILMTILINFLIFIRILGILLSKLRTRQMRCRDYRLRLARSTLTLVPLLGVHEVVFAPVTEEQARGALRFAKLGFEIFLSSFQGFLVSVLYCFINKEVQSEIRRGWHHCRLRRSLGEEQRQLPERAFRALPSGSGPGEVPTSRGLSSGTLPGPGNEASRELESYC

T2: human glucose-dependent insulinotropic polypeptide receptor (human, UniProt P48546 22-466)
T2 sequence (looked up): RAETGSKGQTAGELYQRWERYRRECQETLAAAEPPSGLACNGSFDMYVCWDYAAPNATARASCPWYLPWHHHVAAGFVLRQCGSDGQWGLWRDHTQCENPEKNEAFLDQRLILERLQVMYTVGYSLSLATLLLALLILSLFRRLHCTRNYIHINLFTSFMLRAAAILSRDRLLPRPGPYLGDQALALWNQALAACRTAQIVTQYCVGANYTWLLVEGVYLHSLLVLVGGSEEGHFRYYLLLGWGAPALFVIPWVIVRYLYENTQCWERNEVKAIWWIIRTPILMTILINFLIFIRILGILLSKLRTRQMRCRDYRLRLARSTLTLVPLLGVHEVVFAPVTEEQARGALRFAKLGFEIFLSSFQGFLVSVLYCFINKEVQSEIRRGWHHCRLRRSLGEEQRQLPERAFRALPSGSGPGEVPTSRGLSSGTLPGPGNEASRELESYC


Legend:
human GIP receptor = biological target: T1, human GIP receptor; assay: In vitro functional potency (CRE luciferase; whole cells), human GIPR; assay type: cell-based; conditions: BHK CRE luc2P hGIPR whole cells; Table 2; read-out: hGIPR CRE Luc EC50
Experimental: The purpose of this example is to test the functional activity, or potency, of the compounds in vitro at the human and mouse GLP-1, GIP, and Gcg receptors. The in vitro functional potency is the measure of target receptor activation in a whole cell assay.
In vitro functional potency was determined by measuring the response of the target receptor in a reporter gene assay in individual cell lines. The assay was performed in stably transfected BHK cell lines that expresses one of the following G-protein coupled receptors: human GLP-1 receptor, human GIP receptor, human Gcg receptor, mouse GLP-1 receptor, mouse GIP receptor, or mouse Gcg receptor; and where each cell line contains the DNA for the cAMP response element (CRE) coupled to a promoter and the gene for firefly luciferase (CRE luciferase). When the respective receptor is activated, it results in the production of cAMP, which in turn results in expression of the luciferase protein. When assay incubation is completed, luciferase substrate (luciferin) is added resulting in the enzymatic conversion of luciferin to oxyluciferin and producing bioluminescence. The luminescence is measured as the readout for the assay.
The cells lines used in these assays were BHK cells with BHKTS13 as a parent cell line. The cell lines were derived from a clone containing the CRE luciferase element and were established by further transfection with the respective receptor to obtain the relevant cell line.
The cells were cultured at 37° C. with 5% CO2 in Cell Culture Medium. They were aliquoted and stored in liquid nitrogen. The cells were kept in continuous culture and were seeded out the day before each assay.
GLP-1R and GcgR Cell Culture Medium consisted of DMEM medium with 10% FBS, 500 µg/mL G418, and 300 µg/mL hygromycin. GIPR Cell Culture Medium consisted of DMEM medium with 10% FBS, 400 µg/mL G418, and 300 µg/mL hygromycin. Assay Buffer consisted of DMEM w/o phenol red, 10 mM Hepes, 1× Glutamax, 1% ovalbumin, and 0.1% Pluronic F-68.
• 1) Cells were plated at 5000 cells/well and incubated overnight in the assay plate. • 2) Cells were washed once in DPBS. • 3) Stocks of the test compounds and reference compounds in concentrations ranging from 100-300 pM were diluted 1:150 in Assay Buffer.
The data from the microtiter plate reader was first regressed in an Excel in order to calculate the x-axis, log scale concentrations based on the individual test compound's stock concentration and the dilutions of the assay. […] The software performs a non-linear regression (log(agonist) vs response). A minimum of two replicates was measured for each sample. The reported values are averages of the replicates.

[1] = Pharmacokinetic study in minipigs, i.v. administration; set-up: species or system Göttingen minipigs; conditions: female, Göttingen, minipig, in vivo, iv
Outline: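 Terminal half-life, reported as harmonic mean, came from non-compartmental fits of plasma levels measured by antibody assay or LCMS over up to 14 days. Dosing was i.v., typically 1.5-2 nmol/kg, through implanted caval catheters in fasted female Göttingen minipigs of 16-35 kg.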

human GLP-1 receptor = biological target: T3, human GLP-1 receptor (Homo sapiens, UniProt P43220); assay: In vitro functional potency (CRE luciferase; whole cells), human GLP-1R; assay type: cell-based; conditions: BHK CRE luc2P hGLP-1R whole cells; Table 2; read-out: hGLP-1R CRE Luc EC50
T3 construct: expressed in transfected cells; host or cells: BHK cells (parent line BHKTS13) containing CRE luciferase

[2] = biological target: human glucagon-like peptide 1 receptor (human, UniProt P43220 24-463); assay: cell-based or functional assay
[3] = biological target: T2, human glucose-dependent insulinotropic …; assay: cell-based or functional assay
human glucagon receptor = human glucagon receptor (human, UniProt P47871 26-477); assay: cell-based or functional assay
Sequence of human glucagon receptor (P47871 26-477): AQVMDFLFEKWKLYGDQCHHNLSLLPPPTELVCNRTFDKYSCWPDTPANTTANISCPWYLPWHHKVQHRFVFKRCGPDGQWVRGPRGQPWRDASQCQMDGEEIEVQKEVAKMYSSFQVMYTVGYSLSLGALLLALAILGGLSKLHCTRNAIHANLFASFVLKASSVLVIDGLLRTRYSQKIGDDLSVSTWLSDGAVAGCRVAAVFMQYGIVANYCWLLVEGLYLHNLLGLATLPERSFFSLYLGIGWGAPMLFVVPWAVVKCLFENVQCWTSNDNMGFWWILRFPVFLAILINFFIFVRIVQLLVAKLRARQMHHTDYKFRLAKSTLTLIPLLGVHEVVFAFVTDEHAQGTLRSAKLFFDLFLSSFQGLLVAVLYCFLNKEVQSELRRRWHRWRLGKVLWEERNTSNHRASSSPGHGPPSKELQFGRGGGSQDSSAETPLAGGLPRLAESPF

T3 sequence (P43220 24-463): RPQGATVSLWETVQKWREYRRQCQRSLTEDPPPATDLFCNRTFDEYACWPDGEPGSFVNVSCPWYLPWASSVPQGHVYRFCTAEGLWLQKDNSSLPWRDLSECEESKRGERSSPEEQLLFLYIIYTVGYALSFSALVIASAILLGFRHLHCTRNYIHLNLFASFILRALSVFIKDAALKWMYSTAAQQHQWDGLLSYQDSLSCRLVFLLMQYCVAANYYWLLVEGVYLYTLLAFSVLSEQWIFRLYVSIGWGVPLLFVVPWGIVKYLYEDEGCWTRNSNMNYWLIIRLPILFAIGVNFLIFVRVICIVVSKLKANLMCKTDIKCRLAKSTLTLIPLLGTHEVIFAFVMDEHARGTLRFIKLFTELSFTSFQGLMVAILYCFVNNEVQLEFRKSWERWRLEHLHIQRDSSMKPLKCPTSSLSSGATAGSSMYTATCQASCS

Molecule	EC50 (human GIP receptor)	half-life [1]	EC50 (human GLP-1 receptor)	hGLP-1R CRE Luc EC50 (pM) [2]	hGIPR CRE Luc EC50 (pM) [3]	hGcgR CRE Luc EC50 (pM) (human glucagon receptor)
CC[C@H](C)[C@H](NC(=O)[C@H](CO)NC(=O)[C@H](Cc1ccc(O)cc1)NC(=O)[C@H](CC(=O)O)NC(=O)[C@H](CO)NC(=O)[C@@H](NC(=O)[C@H](Cc1ccccc1)NC(=O)[C@@H](NC(=O)CNC(=O)[C@H](Cc1c[nH]cn1)NC(=O)C(C)(C)NC(=O)[C@@H](N)Cc1c[nH]cn1)[C@@H](C)O)[C@@H](C)O)C(=O)N[C@@H](Cc1ccc(O)cc1)C(=O)N[C@@H](CC(C)C)C(=O)N[C@@H](CCC(=O)O)C(=O)N[C@@H](CCCCNC(=O)[C@@H](N)CCCCNC(=O)[C@@H](N)CCCCNC(=O)CC[C@H](NC(=O)CCCCCCCCCCCCCCCCCCC(=O)O)C(=O)O)C(=O)N[C@@H](CCC(N)=O)C(=O)N[C@@H](Cc1ccc(O)cc1)C(=O)N[C@@H](C)C(=O)NC(C)(C)C(=O)N[C@@H](CCC(=O)O)C(=O)N[C@@H](Cc1ccccc1)C(=O)N[C@H](C(=O)N[C@@H](CCC(N)=O)C(=O)N[C@@H](Cc1c[nH]c2ccccc12)C(=O)N[C@@H](CC(C)C)C(=O)N[C@@H](CC(C)C)C(=O)N[C@@H](CCC(=O)O)C(=O)NCC(=O)NCC(=O)N1CCC[C@H]1C(=O)N[C@@H](CO)C(=O)N[C@@H](CO)C(=O)NCC(=O)N[C@@H](C)C(=O)N1CCC[C@H]1C(=O)N1CCC[C@H]1C(=O)N1CCC[C@H]1C(=O)N[C@@H](CO)C(N)=O)C(C)C [Compound No. 24] (H-H[Aib]HGTFTSDYSIYLEK([εLys-εLys-γGlu-C20 diacid])QYA[Aib]EFVQWLLEGGPSSGAPPPS-NH2)	7.7 pM	3.42 days	–	–	–	–
CC[C@H](C)[C@H](NC(=O)[C@H](CO)NC(=O)[C@H](Cc1ccc(O)cc1)NC(=O)[C@H](CC(=O)O)NC(=O)[C@H](CO)NC(=O)[C@@H](NC(=O)[C@H](Cc1ccccc1)NC(=O)[C@@H](NC(=O)CNC(=O)[C@H](Cc1c[nH]cn1)NC(=O)C(C)(C)NC(=O)[C@@H](N)Cc1c[nH]cn1)[C@@H](C)O)[C@@H](C)O)C(=O)N[C@@H](CC(C)C)C(=O)N[C@@H](CC(C)C)C(=O)N[C@@H](CCC(=O)O)C(=O)N[C@@H](CCCCNC(=O)[C@@H](N)CCCCNC(=O)[C@@H](N)CCCCNC(=O)CC[C@H](NC(=O)CCCCCCCCCCCCCCCCCCC(=O)O)C(=O)O)C(=O)N[C@@H](CCCCN)C(=O)N[C@@H](Cc1ccc(O)cc1)C(=O)N[C@@H](C)C(=O)NC(C)(C)C(=O)N[C@@H](CCC(=O)O)C(=O)N[C@@H](Cc1ccccc1)C(=O)N[C@H](C(=O)N[C@@H](CCC(N)=O)C(=O)N[C@@H](Cc1c[nH]c2ccccc12)C(=O)N[C@@H](CC(C)C)C(=O)N[C@@H](CC(C)C)C(=O)N[C@@H](CCC(=O)O)C(=O)NCC(=O)NCC(=O)N1CCC[C@H]1C(=O)N[C@@H](CO)C(=O)N[C@@H](CO)C(=O)NCC(=O)N[C@@H](C)C(=O)N1CCC[C@H]1C(=O)N1CCC[C@H]1C(=O)N1CCC[C@H]1C(=O)N[C@@H](CO)C(N)=O)C(C)C [Compound No. 41] (H-H[Aib]HGTFTSDYSILLEK([εLys-εLys-γGlu-C20 diacid])KYA[Aib]EFVQWLLEGGPSSGAPPPS-NH2)	9.3 pM	2.88 days	4.3 pM	–	–	–
CC[C@H](C)[C@H](NC(=O)[C@H](CO)NC(=O)[C@H](Cc1ccc(O)cc1)NC(=O)[C@H](CC(=O)O)NC(=O)[C@H](CO)NC(=O)[C@@H](NC(=O)[C@H](Cc1ccccc1)NC(=O)[C@@H](NC(=O)CNC(=O)[C@H](Cc1c[nH]cn1)NC(=O)C(C)(C)NC(=O)[C@@H](N)Cc1c[nH]cn1)[C@@H](C)O)[C@@H](C)O)C(=O)N[C@@H](CC(C)C)C(=O)N[C@@H](CC(C)C)C(=O)N[C@@H](CCC(=O)O)C(=O)N[C@@H](CCCCNC(=O)COCCOCCNC(=O)COCCOCCNC(=O)CC[C@H](NC(=O)CCCCCCCCCCCCCCCCCCC(=O)O)C(=O)O)C(=O)N[C@@H](CCC(N)=O)C(=O)N[C@@H](C)C(=O)N[C@@H](C)C(=O)NC(C)(C)C(=O)N[C@@H](CCC(=O)O)C(=O)N[C@@H](Cc1ccccc1)C(=O)N[C@H](C(=O)N[C@@H](CCC(N)=O)C(=O)N[C@@H](Cc1c[nH]c2ccccc12)C(=O)N[C@@H](CC(C)C)C(=O)N[C@@H](CC(C)C)C(=O)N[C@@H](CCC(=O)O)C(=O)NCC(=O)NCC(=O)N1CCC[C@H]1C(=O)N[C@@H](CO)C(=O)N[C@@H](CO)C(=O)NCC(=O)N[C@@H](C)C(=O)N1CCC[C@H]1C(=O)N1CCC[C@H]1C(=O)N1CCC[C@H]1C(=O)N[C@@H](CO)C(N)=O)C(C)C [Compound No. 45] (H-H[Aib]HGTFTSDYSILLEK([AEEA-AEEA-γGlu-C20 diacid])QAA[Aib]EFVQWLLEGGPSSGAPPPS-NH2; N-terminus assumed)	1.9 pM	–	2.4 pM	–	–	–
CC[C@H](C)[C@H](NC(=O)[C@H](CO)NC(=O)[C@H](Cc1ccc(O)cc1)NC(=O)[C@H](CC(=O)O)NC(=O)[C@H](CO)NC(=O)[C@@H](NC(=O)[C@H](Cc1ccccc1)NC(=O)[C@@H](NC(=O)CNC(=O)[C@H](Cc1c[nH]cn1)NC(=O)C(C)(C)NC(=O)[C@@H](N)Cc1c[nH]cn1)[C@@H](C)O)[C@@H](C)O)C(=O)N[C@@H](CC(C)C)C(=O)N[C@@H](CC(C)C)C(=O)N[C@@H](CCC(=O)O)C(=O)N[C@@H](CCCCNC(=O)[C@@H](N)CCCCNC(=O)[C@@H](N)CCCCNC(=O)CC[C@H](NC(=O)CCCCCCCCCCCCCCCCCCC(=O)O)C(=O)O)C(=O)N[C@@H](CCC(N)=O)C(=O)N[C@@H](C)C(=O)N[C@@H](C)C(=O)N[C@@H](CCC(=O)O)C(=O)N[C@@H](CCC(=O)O)C(=O)N[C@@H](Cc1ccccc1)C(=O)N[C@H](C(=O)N[C@@H](CCC(N)=O)C(=O)N[C@@H](Cc1c[nH]c2ccccc12)C(=O)N[C@@H](CC(C)C)C(=O)N[C@@H](CC(C)C)C(=O)N[C@@H](CCC(=O)O)C(=O)NCC(=O)NCC(=O)N1CCC[C@H]1C(=O)N[C@@H](CO)C(=O)N[C@@H](CO)C(=O)NCC(=O)N[C@@H](C)C(=O)N1CCC[C@H]1C(=O)N1CCC[C@H]1C(=O)N1CCC[C@H]1C(=O)N[C@@H](CO)C(N)=O)C(C)C [Compound No. 49] (H-H[Aib]HGTFTSDYSILLEK([εLys-εLys-γGlu-C20 diacid])QAAEEFVQWLLEGGPSSGAPPPS-NH2)	2.1 pM	–	1.4 pM	–	–	–
Y[Aib]QGTFTSDYSIKLDKQAA[Aib]EFVNWLLAGGPSSGAPPPS-NH2 (not fully specified (residue 13)) [Compound No. 62]	–	–	–	36 pM	65 pM	891 pM
Y[Aib]QGTFTSDYSIYKDKQAA[Aib]EFVNWLLAGGPSSGAPPPS-NH2 (not fully specified (residue 14)) [Compound No. 63]	–	–	–	25 pM	175 pM	1110 pM
Y[Aib]QGTFTSDYSIYLDKQAAKEFVNWLLAGGPSSGAPPPS-NH2 (not fully specified (residue 20); printed as Y-Aib-QGTFTSDYSIYLDKQAA-K[2-[2-[2-[[2-[2-[2-[[(4S)-4-carboxy-4-(17-carboxyheptadecanoylamino)butanoyl]amino]ethoxy]ethoxy]acetyl]amino]ethoxy]ethoxy]acetyl]-EFVNWLLAGGPSSGAPPPS-NH2) [Compound No. 60]	–	–	–	14.9 pM	416 pM	182 pM
Y[Aib]QGTFTSDYSIYLDKQAA[Aib]EFVKWLLAGGPSSGAPPPS-NH2 (not fully specified (residue 24)) [Compound No. 64]	–	–	–	45.4 pM	174 pM	464 pM
Y[Aib]QGTFTSDYSIYLDKQAA[Aib]EFVNWLLAKGPSSGAPPPS-NH2 (not fully specified (residue 29)) [Compound No. 65]	–	–	–	132 pM	56 pM	1350 pM
Y[Aib]QGTFTSDYSIYLDKQAA[Aib]EFVNWLLAGGPSSGKPPPS-NH2 (not fully specified (residue 35)) [Compound No. 66]	–	–	–	12 pM	26 pM	1020 pM
